These results are taken from PMC11324738.

For experiment [1], the target named is recombinant LC3 protein, Q9GZQ8. The experiment in a line: ELISA. As to conditions: chain shown with the change, recombinant LC3 coated on the plate, biotin-labeled synthetic peptide, read off a plot.
Experiment [2] concerns the target GFP-LC3, Q9GZQ8. The experiment in a line: Co-immunoprecipitation. As to conditions: chain shown with the change; HEK293T cells co-transfected with GFP-LC3 and GPR50-FLAG constructs; IP anti-FLAG; n = 4 independent experiments; parent: est. 1.0; read off a plot.
The target of experiment [3] is endogenous LC3 (human cells), Q9GZQ8. The experiment in a line: Proximity Ligation Assay. As to conditions: chain shown with the change; HeLa cells transfected with GPR50-FLAG constructs; antibodies against LC3 and FLAG; n = 178–208 cells per group from 3 independent experiments; parent: est. 25; read off a plot.

B1: biotin-labeled synthetic GPR50 LIR peptide, a.a. 290-312 (WT), Q13585 Y305A; W306A; T307A; I308A (peptide)
chain: NAVIYGLLNENFRREAAAAFHAM
Turning to B1, the response was 0.38 OD (562 nm) in experiment [1] (peptide 1 µM, parent: est. 0.47); 0.35 OD (562 nm) in experiment [1] (peptide 2.5 µM, parent: est. 1.2); 0.38 OD (562 nm) in experiment [1] (peptide 5 µM, parent: est. 3.2); 0.4 OD (562 nm) in experiment [1] (peptide 10 µM, parent: est. 3.7); 0.4 OD (562 nm) in experiment [1] (peptide 20 µM, parent: est. 3.7); 0.5 OD (562 nm) in experiment [1] (peptide 40 µM, parent: est. 3.7).

B2: GPR50-FLAG WT, Q13585 Y305A; W306A; T307A; I308A (protein)
chain: MGPTLAVPTPYGCIGCKLPQPEYPPALIIFMFCAMVITIVVDLIGNSMVILAVTKNKKLRNSGNIFVVSLSVADMLVAIYPYPLMLHAMSIGGWDLSQLQCQMVGFITGLSVVGSIFNIVAIAINRYCYICHSLQYERIFSVRNTCIYLVITWIMTVLAVLPNMYIGTIEYDPRTYTCIFNYLNNPVFTVTIVCIHFVLPLLIVGFCYVRIWTKVLAARDPAGQNPDNQLAEVRNFLTMFVIFLLFAVCWCPINVLTVLVAVSPKEMAGKIPNWLYLAAYFIAYFNSCLNAVIYGLLNENFRREAAAAFHAMRHPIIFFSGLISDIREMQEARTLARARAHARDQAREQDRAHACPAVEETPMNVRNVPLPGDAAAGHPDRASGHPKPHSRSSSAYRKSASTHHKSVFSHSKAASGHLKPVSGHSKPASGHPKSATVYPKPASVHFKADSVHFKGDSVHFKPDSVHFKPASSNPKPITGHHVSAGSHSKSAFSAATSHPKPTTGHIKPATSHAEPTTADYPKPATTSHPKPTAADNPELSASHCPEIPAIAHPVSDDSDLPESASSPAAGPTKPAASQLESDTIADLPDPTVVTTSTNDYHDVVVIDVEDDPDEMAV
For the molecule B2, the ratio to parent in experiment [2] stood at 0.65. Further, the response (DUO (+) spots/cell) in experiment [3] was 5.5.
